Consider five substances from US20050004011A1, “Compositions and methods for treating bacterial infections with protein-dalbavancin complexes” (priority 2002, published 2005).

Values joined by “and” are separate entries in the source; they are usually repeats but may differ in a detail not shown here. Identical values can stand only once. Like-named read-outs stand apart in the source and are kept apart here.

Data set [1] addresses N,N′-diacetyl-Lys-D-Ala-D-Ala.
Data set [2] concerns the target Human serum albumin (human) (UniProt P02768). Description: calculated from ITC Ka; antibiotic 500 µM, HSA 6x10^-4 M assumed.
The target in data set [3] is N,N′-diacetyl-Lys-D-Ala-D-Ala. Description: ITC, 37 C, HSA 0 µM.
Data set [4] deals with N,N′-diacetyl-Lys-D-Ala-D-Ala. The experiment in a line: ITC, 37 C, HSA 516 µM present. (ITC needs no label: the signal is the heat of the interaction.)
Data set [5] concerns the target Human α-glycoprotein (human) (UniProt P02763). The experiment in a line: calculated from ITC Ka; antibiotic 10 µM, α-glycoprotein 1.5x10^-5 M assumed.
Data set [6] deals with N,N′-diacetyl-Lys-D-Ala-D-Ala. This is another data set of the same source.
The target of data set [7] is N,N′-diacetyl-Lys-D-Ala-D-Ala. The source holds these as a separate data set.
In data set [8] the target is Human serum albumin (human) (UniProt P02768). Description: calculated from ITC Ka; antibiotic 10 µM, HSA 6x10^-4 M assumed.
For data set [9], the target named is N,N′-diacetyl-Lys-D-Ala-D-Ala. Description: ITC, 25 C, HSA 34.2 µM present.
The target of data set [10] is Human α-glycoprotein (human) (UniProt P02763). Description: calculated from ITC Ka; antibiotic 250 µM, α-glycoprotein 1.5x10^-5 M assumed.
Data set [11] deals with Human serum albumin (human) (UniProt P02768). The experiment in a line: calculated from ITC Ka; antibiotic 250 µM, HSA 6x10^-4 M assumed.
Data set [12] addresses Human α-glycoprotein (human) (UniProt P02763). The experiment in a line: calculated from ITC Ka; antibiotic 100 µM, α-glycoprotein 1.5x10^-5 M assumed.
Data set [13] deals with Rat albumin (rat) (UniProt P02770). Description: ITC, 25 C, single-site model.
The target in data set [14] is Bovine albumin (bovine) (UniProt P02769). The experiment in a line: ITC, 25 C, single-site model.
Data set [15] addresses Dog albumin (dog) (UniProt P49822). Description: ITC, 25 C, single-site model.
Data set [16] has as its target Human α-glycoprotein (human) (UniProt P02763). Description: ITC, 25 C, single-site model.
The target of data set [17] is Human serum albumin (human) (UniProt P02768). The experiment in a line: ITC, 25 C, single-site model.
Data set [18] deals with Human α-glycoprotein (human) (UniProt P02763). The experiment in a line: calculated from ITC Ka; antibiotic 500 µM, α-glycoprotein 1.5x10^-5 M assumed.
For data set [19], the target named is Human serum albumin (human) (UniProt P02768). The experiment in a line: calculated from ITC Ka; antibiotic 165 µM, HSA 6x10^-4 M assumed.
The target of data set [20] is N,N′-diacetyl-Lys-D-Ala-D-Ala. The experiment in a line: ITC, 37 C, no HSA, average.
For data set [21], the target named is N,N′-diacetyl-Lys-D-Ala-D-Ala. The experiment in a line: ITC, 25 C, HSA 430 µM present.
The target in data set [22] is N,N′-diacetyl-Lys-D-Ala-D-Ala. The experiment in a line: ITC, 25 C, HSA 288 µM present.
Data set [23] deals with N,N′-diacetyl-Lys-D-Ala-D-Ala. This is another data set of the same source.
Data set [24] has as its target N,N′-diacetyl-Lys-D-Ala-D-Ala. The experiment in a line: ITC, 10 C, no HSA, average.
For data set [25], the target named is Human serum albumin (human) (UniProt P02768). Description: calculated from ITC Ka; antibiotic 1 µM, HSA 6x10^-4 M assumed.
The target of data set [26] is N,N′-diacetyl-Lys-D-Ala-D-Ala. The experiment in a line: ITC, 25 C, apparent Kdiss plateau at high HSA.
Data set [27] has as its target N,N′-diacetyl-Lys-D-Ala-D-Ala. Description: ITC, preliminary experiments, no serum proteins.
Data set [28] concerns the target N,N′-diacetyl-Lys-D-Ala-D-Ala. Description: ITC, 10 C, HSA 0 µM.
The target of data set [29] is Human serum albumin (human) (UniProt P02768). Description: calculated from ITC Ka; antibiotic 100 µM, HSA 6x10^-4 M assumed.
Data set [30] addresses Rat albumin (rat) (UniProt P02770). The experiment in a line: ITC, 37 C, single-site model.
For data set [31], the target named is Dog albumin (dog) (UniProt P49822). Description: ITC, 37 C, single-site model.
The target of data set [32] is Human α-glycoprotein (human) (UniProt P02763). Description: ITC, 37 C, single-site model.
In data set [33] the target is Human serum albumin (human) (UniProt P02768). Description: ITC, 37 C, single-site model.
Data set [34] concerns the target Human α-glycoprotein (human) (UniProt P02763). The experiment in a line: calculated from ITC Ka; antibiotic 1 µM, α-glycoprotein 1.5x10^-5 M assumed.
Data set [35] has as its target N,N′-diacetyl-Lys-D-Ala-D-Ala. The experiment in a line: ITC, 25 C, HSA 104 µM present.
Data set [36] deals with N,N′-diacetyl-Lys-D-Ala-D-Ala. The experiment in a line: ITC, 25 C, no HSA, average.
The target of data set [37] is Human α-glycoprotein (human) (UniProt P02763). The experiment in a line: calculated from ITC Ka; antibiotic 165 µM, α-glycoprotein 1.5x10^-5 M assumed.
Data set [38] has as its target human albumin (Homo sapiens, UniProt P02768). The experiment in a line: Protein binding by isothermal titration microcalorimetry.
Experimental: (§1) Integrated heat effects, after correction for heats of dilution, were analyzed by non-linear regression using a simple single-site binding model with the standard Microcal ORIGIN software package. Raw data (μcal/sec) for each injection were integrated to give the total heat effect per addition, then divided by amount of injectant to give kcal/mole of injectant. The same integration was applied for control dilution effects, and this was subtracted from the actual titration data. This provided a differential of the binding curve in which the extent of binding is proportional to the total heat liberated (or absorbed). This was then analyzed by non-linear regression methods in terms of various standard binding models.
In data set [39] the test system is human α-glycoprotein. The description is as above. The note with it: α-glycoprotein […]10^−5M.
Experimental: as §1
The target of data set [40] is N,N′-diacetyl-Lys-D-Ala-D-Ala. Description: ITC, 25 C, HSA 513 µM present.
Data set [41] has as its target N,N′-diacetyl-Lys-D-Ala-D-Ala. The experiment in a line: ITC, 25 C, HSA 0 µM.
Data set [42] addresses N,N′-diacetyl-Lys-D-Ala-D-Ala. Description: ITC, 25 C, asymptote of the non-competitive binding model.

Chain of Human α-glycoprotein (human) (P02763 19-201): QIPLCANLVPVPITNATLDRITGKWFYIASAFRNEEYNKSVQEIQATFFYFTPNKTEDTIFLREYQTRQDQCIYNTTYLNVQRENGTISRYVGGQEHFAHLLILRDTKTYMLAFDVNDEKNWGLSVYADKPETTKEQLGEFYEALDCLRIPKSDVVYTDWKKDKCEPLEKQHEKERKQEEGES
Chain of Rat albumin (rat) (P02770 25-608 limits assumed): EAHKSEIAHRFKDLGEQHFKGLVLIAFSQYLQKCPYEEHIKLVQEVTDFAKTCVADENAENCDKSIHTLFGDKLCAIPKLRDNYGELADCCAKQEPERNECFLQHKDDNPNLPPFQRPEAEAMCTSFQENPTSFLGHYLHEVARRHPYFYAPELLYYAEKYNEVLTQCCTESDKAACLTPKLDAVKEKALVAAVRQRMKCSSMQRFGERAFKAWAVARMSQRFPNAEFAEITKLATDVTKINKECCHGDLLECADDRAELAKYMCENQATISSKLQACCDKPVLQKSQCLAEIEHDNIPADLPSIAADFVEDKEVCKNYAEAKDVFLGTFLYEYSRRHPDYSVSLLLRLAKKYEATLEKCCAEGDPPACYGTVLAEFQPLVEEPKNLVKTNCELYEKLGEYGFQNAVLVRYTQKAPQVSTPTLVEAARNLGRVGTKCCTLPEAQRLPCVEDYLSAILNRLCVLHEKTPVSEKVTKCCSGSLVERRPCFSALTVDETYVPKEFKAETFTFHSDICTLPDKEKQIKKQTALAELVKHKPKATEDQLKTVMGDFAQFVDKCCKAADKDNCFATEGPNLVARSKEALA
Chain of Dog albumin (dog) (P49822 25-608 limits assumed): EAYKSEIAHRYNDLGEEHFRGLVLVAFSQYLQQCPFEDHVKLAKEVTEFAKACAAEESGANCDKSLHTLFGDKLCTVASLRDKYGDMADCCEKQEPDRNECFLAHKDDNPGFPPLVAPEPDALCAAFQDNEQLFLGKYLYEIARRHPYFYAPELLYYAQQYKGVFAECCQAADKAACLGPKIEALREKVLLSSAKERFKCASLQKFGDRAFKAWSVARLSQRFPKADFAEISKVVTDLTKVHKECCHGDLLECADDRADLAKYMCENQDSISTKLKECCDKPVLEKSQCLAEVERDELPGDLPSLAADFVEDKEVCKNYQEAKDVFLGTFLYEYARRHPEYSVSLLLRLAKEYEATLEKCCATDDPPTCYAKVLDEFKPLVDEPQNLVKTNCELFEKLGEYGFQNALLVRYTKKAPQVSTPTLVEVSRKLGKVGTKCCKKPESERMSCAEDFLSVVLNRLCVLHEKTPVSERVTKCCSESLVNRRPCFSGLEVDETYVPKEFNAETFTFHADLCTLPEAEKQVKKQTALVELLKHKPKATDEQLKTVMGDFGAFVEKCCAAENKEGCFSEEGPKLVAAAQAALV
Chain of Bovine albumin (bovine) (P02769 25-607 limits assumed): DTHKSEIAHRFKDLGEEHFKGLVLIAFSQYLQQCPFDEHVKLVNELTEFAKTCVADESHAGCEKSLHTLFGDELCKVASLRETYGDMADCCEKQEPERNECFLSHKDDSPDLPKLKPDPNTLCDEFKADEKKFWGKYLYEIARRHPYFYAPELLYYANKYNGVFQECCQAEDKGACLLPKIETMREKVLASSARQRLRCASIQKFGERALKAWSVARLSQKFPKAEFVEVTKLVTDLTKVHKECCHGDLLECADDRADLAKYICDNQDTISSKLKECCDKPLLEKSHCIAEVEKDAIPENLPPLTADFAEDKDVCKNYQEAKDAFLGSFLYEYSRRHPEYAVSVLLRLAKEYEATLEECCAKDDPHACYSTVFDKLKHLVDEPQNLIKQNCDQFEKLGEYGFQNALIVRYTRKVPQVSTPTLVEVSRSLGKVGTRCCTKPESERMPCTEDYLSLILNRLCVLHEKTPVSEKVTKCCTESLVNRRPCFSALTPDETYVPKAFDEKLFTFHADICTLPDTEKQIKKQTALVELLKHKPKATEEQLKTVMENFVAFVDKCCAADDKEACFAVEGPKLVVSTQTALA

As to Dalbavancin (peptide), the Ka in [1] is 27600 M⁻¹; in data set [3], 130000 M⁻¹ and 110000 M⁻¹; in data set [4] it was 9570 M⁻¹; in data set [6], 118000 M⁻¹; in data set [7] it was 12500 M⁻¹; in data set [9], 35000 M⁻¹. The Ka was found to be 310000 M⁻¹ in data set [13]; 138000 M⁻¹ in [14]; 62000 M⁻¹ in [15]; 184000 M⁻¹ in data set [16]; 135000 M⁻¹ in data set [17]; 28400 M⁻¹ in data set [21]. For the same substance, the Ka in [22] was determined as 31000 M⁻¹; in data set [23], 21800 M⁻¹; in data set [30], 280000 M⁻¹; in [31], 50000 M⁻¹; in data set [32], 480000 M⁻¹; in data set [33], 133000 M⁻¹. For the same substance, in [35], the Ka amounted to 34900 M⁻¹. Further, the Kd in [1] is 36.2 µM; in [3], 7.69 µM and 9.09 µM; in data set [4] it was 105 µM; in [6] it was 8.47 µM; in [7] it was 80 µM; in data set [9], 28.6 µM. Further, the Kd in data set [20] was 8.4 µM; in data set [21] it was 35.2 µM; in [22] it was 32.3 µM; in data set [23], 45.9 µM; in [24], 1.4 µM; in data set [26], 35 µM. Also, the values for the Kd in [27], in data set [35] and in data set [36] were 1 to 10 µM, 28.7 µM and 3.1 µM, respectively. The ΔH in [1] is -16.9 kcal/mol; in data set [3] it was -12.5 kcal/mol and -17.4 kcal/mol; in [4], -26.6 kcal/mol; in data set [6], -27.8 kcal/mol and -26.4 kcal/mol; in data set [7], -98.6 kcal/mol; in data set [9] it was -20 kcal/mol. Besides, the ΔH was -19.5 kcal/mol in data set [21]; -21.1 kcal/mol in [22]; -15 kcal/mol in data set [23]; -10.3 kcal/mol (2×) and -8.95 kcal/mol in data set [28]; -18.6 kcal/mol in [35]. Further, the ΔS in data set [1] is -36.5 eu; in [3], -16.8 eu and -33.2 eu; in [4], -67.6 eu; in data set [6], -70.1 eu and -65.5 eu; in [7], -299 eu; in data set [9], -46.2 eu. Also, the ΔS in data set [21] is -44.9 eu; in data set [22] it was -50 eu; in data set [23], -30.4 eu; in data set [28] it was -9.6 eu and -4.3 eu and -9.9 eu; in [35], -41.7 eu. The calculated percent bound in data set [2] was 98%; in data set [5], 68.2%; in [8], 98.8%; in data set [10] it was 11.4%; in [11], 98.5%; in data set [12], 26.2%. In addition, the calculated percent bound in data set [18] was 5.9%; in [19], 98.6%; in [25], 98.8%; in data set [29], 98.7%; in data set [34], 73%; in [37] it was 16.9%.
Teicoplanin (peptide): the calculated percent bound in data set [5] was 9.1%; in data set [8] it was 98.3%; in data set [12], 6%; in data set [25] it was 98.3%; in [29] it was 98%; in [34] it was 9.6%. The Ka in data set [16] was determined as 7000 M⁻¹; in [17], 96000 M⁻¹.
Turning to Teicoplanin [reference compound], in [38], the “binding stoichiometry modeling (drug:protein)” value is 1:1 binding. Moreover, the Calculated percent binding in [38] (antibiotic 100 μM, human serum albumin 6×10^−4 M) is reported as 98.0%; in data set [39] (antibiotic 1 μM) it was 9.6%; in [39] (antibiotic 10 μM), 9.1%; in [39] (antibiotic 100 μM) it was 6.0%.
In the case of “Vancomycin hydrochloride (Sigma V-2002, fw 1485.7) (peptide)”, in data set [40], the Ka was 290000 M⁻¹, the Kd came to 3.45 µM, the ΔH was -10.1 kcal/mol and the ΔS was -8.8 eu. In [41], the Ka was 340000 M⁻¹ and 360000 M⁻¹; the Kd is 2.94 µM and 2.78 µM; the ΔH was -10.7 kcal/mol and -12.9 kcal/mol; the ΔS was -10.6 eu and -17.8 eu. In data set [28], the Ka was determined as 690000 M⁻¹, the Kd amounted to 1.45 µM, the ΔH is -9.49 kcal/mol and the ΔS is -6.8 eu.
Substance “dalbavancin-HSA complex (from UniProt P02768 25-609)” gave a Kd in data set [42] of 35 µM.
